{
  "source": "patent US20110262366A1",
  "binders": {"B1": {"name": "TKPPR-conjugated fluorescent beads (peptide)", "peptide": "TKPPR", "modifications": "also: coupled by EDAC to carboxylate-modified fluorescent FluoSpheres beads, many copies per bead"}, "B2": {"name": "TKPPR tetramer BRU-326 (OG-(TKPPR)4) (peptide)", "peptide": "TKPPR-OH", "modifications": "not fully specified (N-terminus); printed as OG-(TKPPR)4; also: tetramer: four TKPPR arms on branched scaffold carrying one Oregon Green"}},
  "key": {"[1]": {"molecular_target": "endothelial cell receptor on HAEC (human aortic endothelial cells)", "assay": "competition, 100 µM BRU-305 against 2% BRU-114 microbubbles (competitor) on HAEC, static"}, "[2]": {"molecular_target": "endothelial cell receptor on HAEC (human aortic endothelial cells)", "assay": "competition, 50 µM BRU-305 against 2% BRU-114 microbubbles (competitor) on HAEC, static"}, "[3]": {"molecular_target": "endothelial cell receptor on HAEC (human aortic endothelial cells)", "assay": "competition, 200 µM BRU-305 against 2% BRU-114 microbubbles (competitor) on HAEC, static"}, "[4]": {"molecular_target": "NP-1/Fc (Neuropilin-1/Fc, R&D Systems)", "sequence (Q9QWJ9 22-855)": "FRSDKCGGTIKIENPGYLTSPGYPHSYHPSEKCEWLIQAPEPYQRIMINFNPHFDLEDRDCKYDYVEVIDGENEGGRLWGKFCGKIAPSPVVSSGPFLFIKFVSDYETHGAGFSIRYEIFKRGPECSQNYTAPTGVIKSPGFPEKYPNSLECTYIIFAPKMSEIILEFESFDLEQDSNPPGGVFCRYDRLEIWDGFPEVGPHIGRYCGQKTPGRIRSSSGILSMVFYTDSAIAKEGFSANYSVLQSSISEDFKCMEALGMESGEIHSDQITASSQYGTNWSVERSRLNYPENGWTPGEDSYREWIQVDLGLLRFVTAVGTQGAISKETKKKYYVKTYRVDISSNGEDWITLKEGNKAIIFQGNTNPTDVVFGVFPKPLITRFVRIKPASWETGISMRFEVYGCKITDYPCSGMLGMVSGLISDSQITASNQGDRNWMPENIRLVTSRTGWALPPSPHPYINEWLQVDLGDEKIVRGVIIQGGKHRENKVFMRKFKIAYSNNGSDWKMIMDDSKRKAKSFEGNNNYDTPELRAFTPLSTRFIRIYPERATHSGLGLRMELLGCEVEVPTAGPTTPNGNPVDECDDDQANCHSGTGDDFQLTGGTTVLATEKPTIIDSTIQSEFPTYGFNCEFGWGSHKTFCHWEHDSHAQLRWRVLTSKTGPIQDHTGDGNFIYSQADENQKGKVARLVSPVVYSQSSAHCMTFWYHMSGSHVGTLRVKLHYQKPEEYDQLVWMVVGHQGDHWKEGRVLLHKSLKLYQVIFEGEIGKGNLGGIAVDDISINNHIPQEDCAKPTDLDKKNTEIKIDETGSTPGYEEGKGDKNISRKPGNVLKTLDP", "assay": "competition with 250 pM ^125I-VEGF165 on NP-1/Fc-coated plates, 4° C., 2 h"}, "[5]": {"molecular_target": "endothelial cell receptor on HAEC (human aortic endothelial cells)", "assay": "competition, 25 µM tuftsin against 1% BRU-114 microbubbles (competitor) on HAEC, static"}, "[6]": {"molecular_target": "endothelial cell receptor on HAEC (human aortic endothelial cells)", "assay": "competition, 10 µM tuftsin against 1% BRU-114 microbubbles (competitor) on HAEC, static"}, "[7]": {"molecular_target": "endothelial cell receptor on HAEC (human aortic endothelial cells)", "assay": "competition, 5 µM tuftsin against 1% BRU-114 microbubbles (competitor) on HAEC, static"}, "[8]": {"molecular_target": "endothelial cell receptor on HAEC (human aortic endothelial cells)", "assay": "competition, 100 µM tuftsin against 1% BRU-114 microbubbles (competitor) on HAEC, static"}, "[9]": {"molecular_target": "endothelial cell receptor on HAEC (human aortic endothelial cells)", "assay": "competition, 50 µM tuftsin against 1% BRU-114 microbubbles (competitor) on HAEC, static"}, "[10]": {"molecular_target": "endothelial cell receptor on HAEC (human aortic endothelial cells)", "assay": "conjugated fluorescent beads on confluent HAEC, static 30 min, image analysis (Example 2, experiment 1)"}, "[11]": {"molecular_target": "endothelial cell receptor on HAEC (human aortic endothelial cells)", "assay": "TKPPR-beads perfused over HAEC in a parallel plate flow cell, 1.53 dynes/cm^2"}, "[12]": {"molecular_target": "endothelial cell receptor on HAEC (human aortic endothelial cells)", "assay": "microbubbles with 5% DPPE-GTKPPR on HAEC, static; cells treated with 1 ng/mL TNFα for 4 h"}, "[13]": {"molecular_target": "endothelial cell receptor on RAEC (rabbit aortic endothelial cells)", "assay": "microbubbles with 5% DPPE-GTKPPR on RAEC, static, no competitor"}, "[14]": {"molecular_target": "endothelial cell receptor on HAEC (human aortic endothelial cells)", "assay": "microbubbles with 1% BRU-114 on HAEC, static, no competitor"}, "[15]": {"molecular_target": "endothelial cell receptor on HAEC (human aortic endothelial cells)", "assay": "microbubbles with 5% BRU-114 on HAEC, static, no competitor"}, "[16]": {"molecular_target": "endothelial cell receptor on HAEC (human aortic endothelial cells)", "assay": "microbubbles with 10% BRU-114 on HAEC, static, no competitor"}, "[17]": {"molecular_target": "endothelial cell receptor on HAEC (human aortic endothelial cells)", "assay": "microbubbles with 5% DPPE-GTKPPR on HAEC, static, no competitor (control)"}, "[18]": {"molecular_target": "endothelial cell receptor on HAEC (human aortic endothelial cells)", "assay": "microbubbles with 5% DPPE-GTKPPR on HAEC, static; cells treated with 10 ng/mL TNFα for 4 h"}, "[19]": {"molecular_target": "endothelial cell receptor on HAEC (human aortic endothelial cells)", "assay": "microbubbles on HAEC, static, manual counting, 5% against 1% DPPE-GTKPPR"}, "[20]": {"molecular_target": "endothelial cell receptor on HAEC (human aortic endothelial cells)", "assay": "microbubbles with 2% BRU-114 on HAEC, static, no competitor (control set to 100)"}, "[21]": {"molecular_target": "KB cells (human epidermoid carcinoma cell line)", "assay": "microbubbles with 5% DPPE-GTKPPR on KB cells, static"}, "[22]": {"molecular_target": "endothelial cell receptor on HAEC (human aortic endothelial cells)", "assay": "microbubbles with 5% DPPE-GTKPPR on HAEC, static, no competitor (same control as in the 16th table)"}, "[23]": {"molecular_target": "endothelial cell receptor on HAEC (human aortic endothelial cells)", "assay": "microbubbles with 5% DPPE-GTKPPR on HAEC, static; cells treated with 5 ng/mL TNFα for 4 h"}, "[24]": {"molecular_target": "endothelial cell receptor on HAEC (human aortic endothelial cells)", "assay": "microbubbles with 5% DPPE-GTKPPR on HAEC, static; cells treated with 0 ng/mL TNFα for 4 h"}, "[25]": {"molecular_target": "endothelial cell receptor on HAEC (human aortic endothelial cells)", "assay": "microbubbles with 5% DPPE-GTKPPR on HAEC, static, no competitor"}, "[26]": {"molecular_target": "endothelial cell receptor on HAEC (human aortic endothelial cells)", "assay": "microbubbles with 5% DPPE-GTKPPR on HAEC, static, no competition"}, "[27]": {"molecular_target": "endothelial cell receptor on HAEC (human aortic endothelial cells)", "assay": "microbubbles with 5% DPPE-GTKPPR on HAEC, static, after washing"}, "[28]": {"molecular_target": "endothelial cell receptor on HAEC (human aortic endothelial cells)", "assay": "microbubbles with 1% BRU-114 on HAEC, static, no competitor, average of duplicates"}, "[29]": {"molecular_target": "endothelial cell receptor on HAEC (human aortic endothelial cells)", "assay": "microbubbles with 5% DPPE-GTKPPR on HAEC, static"}, "[30]": {"molecular_target": "endothelial cell receptor on HAEC (human aortic endothelial cells)", "assay": "microbubbles with 2% BRU-114 on HAEC, static, no competitor, average of duplicates"}, "[31]": {"molecular_target": "endothelial cell receptor on HAEC (human aortic endothelial cells)", "assay": "microbubbles with 1% DPPE-GTKPPR on HAEC, static, no competition"}, "[32]": {"molecular_target": "endothelial cell receptor on HAEC (human aortic endothelial cells)", "assay": "competition, 100 µM BRU-306 against 2% BRU-114 microbubbles (competitor) on HAEC, static"}, "[33]": {"molecular_target": "endothelial cell receptor on HAEC (human aortic endothelial cells)", "assay": "competition, 200 µM BRU-306 against 2% BRU-114 microbubbles (competitor) on HAEC, static"}, "[34]": {"molecular_target": "endothelial cell receptor on HAEC (human aortic endothelial cells)", "assay": "competition, 50 µM BRU-306 against 2% BRU-114 microbubbles (competitor) on HAEC, static"}, "VEGF receptors on HUVECs": {"molecular_target": "VEGF receptors on HUVECs", "assay": "competition with ^125I-VEGF on HUVECs"}},
  "note": "Starred links: 1 amine or outer side, 2 acyl side, 3 side chain; linkers in the order of their positions; H or OH if unused. Positions of bridges follow the written chain, without caps; N, C: chain ends. Primed or numbered codes have the meaning given here. No end group written: not given here. DPPE′ = dipalmitoylphosphatidylethanolamine; Glutaryl = O=C(CCCC(=O)[*:2])[*:1]",
  "data": [
    {"binder": "CTKPPRC", "note": "[Linear CTKPPRC (BRU-305)]", "values": [
      {"measurement": "Bubbles Bound % (of control binding)", "setting": "[1]", "value": "78 % of control"},
      {"measurement": "Bubbles Bound % (of control binding)", "setting": "[2]", "value": "97 % of control"},
      {"measurement": "Bubbles Bound % (of control binding)", "setting": "[3]", "value": "88 % of control"}
    ]},
    {"binder": "TKPR", "note": "[Tuftsin (TKPR)]", "values": [
      {"measurement": "IC50", "setting": "[4]", "value": 280, "unit": "µM"},
      {"measurement": "Bubbles Bound in presence of competitor", "setting": "[5]", "value": 1170, "unit": "bubbles"},
      {"measurement": "Bubbles Bound in presence of competitor", "setting": "[6]", "value": 976, "unit": "bubbles"},
      {"measurement": "Bubbles Bound in presence of competitor", "setting": "[7]", "value": 1150, "unit": "bubbles"},
      {"measurement": "Bubbles Bound in presence of competitor", "setting": "[8]", "value": 556, "unit": "bubbles"},
      {"measurement": "Bubbles Bound in presence of competitor", "setting": "[9]", "value": 904, "unit": "bubbles"}
    ]},
    {"binder": "B1", "values": [
      {"measurement": "Integrated density of bound beads (arbitrary units)", "setting": "[10]", "value": 230},
      {"measurement": "beads bound at 1.53 dynes/cm^2", "setting": "[11]", "value": 86, "unit": "beads"}
    ]},
    {"binder": "{DPPE′-Glutaryl}-GTKPPR-OH (also: built into phospholipid shell of gas-filled microbubbles)", "note": "[DPPE-Glu-GTKPPR (BRU-114) in gas-filled microbubbles]", "values": [
      {"measurement": "Bubbles Bound", "setting": "[12]", "value": 1520, "unit": "bubbles"},
      {"measurement": "RAEC bubbles bound", "setting": "[13]", "value": 751, "unit": "bubbles"},
      {"measurement": "Bubbles Bound", "setting": "[14]", "value": 1640, "unit": "bubbles"},
      {"measurement": "Bubbles Bound", "setting": "[15]", "value": 2780, "unit": "bubbles"},
      {"measurement": "Bubbles Bound", "setting": "[16]", "value": 1860, "unit": "bubbles"},
      {"measurement": "Bubbles Bound", "setting": "[17]", "value": 1250, "unit": "bubbles"},
      {"measurement": "Bubbles Bound", "setting": "[18]", "value": 1020, "unit": "bubbles"},
      {"measurement": "% more bubbles bound than with the 1% composition", "setting": "[19]", "value": 31, "unit": "%"},
      {"measurement": "Bubbles Bound % (of control binding)", "setting": "[20]", "value": "100 % of control"},
      {"measurement": "KB cell bubble binding", "setting": "[21]", "value": 56, "unit": "bubbles"},
      {"measurement": "Bubbles Bound", "setting": "[22]", "value": 1250, "unit": "bubbles"},
      {"measurement": "Bubbles Bound", "setting": "[23]", "value": 1360, "unit": "bubbles"},
      {"measurement": "Bubbles Bound", "setting": "[24]", "value": 950, "unit": "bubbles"},
      {"measurement": "HAEC bubbles bound", "setting": "[25]", "value": 1420, "unit": "bubbles"},
      {"measurement": "Bubbles Bound", "setting": "[26]", "value": 726, "unit": "bubbles"},
      {"measurement": "Bubbles Bound", "setting": "[27]", "value": 7050, "unit": "bubbles"},
      {"measurement": "Bubbles Bound", "setting": "[28]", "value": 737, "unit": "bubbles"},
      {"measurement": "HAEC bubble binding", "setting": "[29]", "value": 1120, "unit": "bubbles"},
      {"measurement": "Bubbles Bound", "setting": "[30]", "value": 953, "unit": "bubbles"},
      {"measurement": "Bubbles Bound", "setting": "[31]", "value": 555, "unit": "bubbles"}
    ]},
    {"binder": "CTKPPRC (disulfide 1-7 (inferred))", "note": "[Cyclic disulfide CTKPPRC (BRU-306)]", "values": [
      {"measurement": "Bubbles Bound % (of control binding)", "setting": "[32]", "value": "71 % of control"},
      {"measurement": "Bubbles Bound % (of control binding)", "setting": "[33]", "value": "99 % of control"},
      {"measurement": "Bubbles Bound % (of control binding)", "setting": "[34]", "value": "97 % of control"}
    ]},
    {"binder": "GRGDSP (also: coupled by EDAC to carboxylate-modified fluorescent FluoSpheres beads)", "note": "[GRGDSP-conjugated fluorescent beads]", "values": [
      {"measurement": "Integrated density of bound beads (arbitrary units)", "setting": "[10]", "value": 28.6}
    ]},
    {"binder": "B2", "values": [
      {"measurement": "IC50", "setting": "VEGF receptors on HUVECs", "value": 10, "unit": "µM"}
    ]}
  ]
}
